# In patent publication US20150344570A1 (published 2015):
# Molecular target: T1, FcγRIa (human, UniProt P12314 16-292)
# T1 construct: extracellular domain; Soluble extracellular domain with C-terminal His tag, expressed in FreeStyle293 cells; analyte in Biacore; also called FcgRI; CD64; not shown: His tag attached to the C terminus
# Test: SPR (Biacore), antibody captured on antigen-peptide chip, FcγRIa as analyte; binding activity relative to control GpH7-B3/GpL16-k0 (HoCon Ab) x100
# Method: Analysis of interaction between objective antibody and the FcγR was carried out using Biacore T100 (GE Healthcare). HBS-EP+ (GE Healthcare) was used as the running buffer, and the measurement temperature was set to 25° C. Chips produced by immobilizing the antigen peptide by the amine coupling method to a Series S Sencor Chip CM5 (GE Healthcare), or alternatively, chips produced by allowing preliminarily biotinylated antigen peptides to interact with and immobilize onto a Series S Sensor Chip SA (certified) (GE Healthcare) were used. Antibodies of interest were captured onto an antigen peptide-immobilized chip, and allowed to interact to each FcγR diluted with running buffer. To regenerate and repeatedly use the chip, the antibodies captured on the chip were washed off by reacting 10 mM glycine-HCl, pH 1.5.
# T1 sequence (P12314 16-292): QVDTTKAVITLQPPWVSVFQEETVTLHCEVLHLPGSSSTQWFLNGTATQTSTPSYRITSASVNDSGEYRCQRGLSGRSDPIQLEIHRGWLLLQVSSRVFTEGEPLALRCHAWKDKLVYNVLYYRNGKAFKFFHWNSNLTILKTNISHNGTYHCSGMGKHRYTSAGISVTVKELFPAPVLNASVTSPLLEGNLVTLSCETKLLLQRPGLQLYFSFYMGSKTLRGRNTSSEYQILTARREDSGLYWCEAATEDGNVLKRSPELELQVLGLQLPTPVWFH
row,Ho/Con_1a,Binder
1,105 % of control (=100),"GpH7-B3 variant Y296_13S/GpL16-k0 (homodimerized antibody, Ho Ab) (antibody, human IgG1, kappa, Anti-glypican-3 IgG1 (G1d with K439E); same alteration in both H chains) heavy: not shown light: DIVMTQSPLSLPVTPGEPASISCQASESLVHSNRNTYLHWYLQKPGQSPQLLIYKVSNRFSGVPDRFSGSGSGTDFTLKISRVEAEDVGVYYCSQNTHVPPTFGQGTKVEIERTVAAPSVFIFPPSDEQLKSGTASVVCLLNNFYPREAKVQWKVDNALQSGNSQESVTEQDSKDSTYSLSSTLTLSKADYEKHKVYACEVTHQGLSSPVTKSFNRGEC"
2,110 % of control (=100),"GpH7-B3 variant Y300_02A/GpL16-k0 (homodimerized antibody, Ho Ab) (antibody, human IgG1, kappa, Anti-glypican-3 IgG1 (G1d with K439E); same alteration in both H chains) heavy: not shown light: DIVMTQSPLSLPVTPGEPASISCQASESLVHSNRNTYLHWYLQKPGQSPQLLIYKVSNRFSGVPDRFSGSGSGTDFTLKISRVEAEDVGVYYCSQNTHVPPTFGQGTKVEIERTVAAPSVFIFPPSDEQLKSGTASVVCLLNNFYPREAKVQWKVDNALQSGNSQESVTEQDSKDSTYSLSSTLTLSKADYEKHKVYACEVTHQGLSSPVTKSFNRGEC"
3,111 % of control (=100),"GpH7-B3 variant Y300_06M/GpL16-k0 (homodimerized antibody, Ho Ab) (antibody, human IgG1, kappa, Anti-glypican-3 IgG1 (G1d with K439E); same alteration in both H chains) heavy: not shown light: DIVMTQSPLSLPVTPGEPASISCQASESLVHSNRNTYLHWYLQKPGQSPQLLIYKVSNRFSGVPDRFSGSGSGTDFTLKISRVEAEDVGVYYCSQNTHVPPTFGQGTKVEIERTVAAPSVFIFPPSDEQLKSGTASVVCLLNNFYPREAKVQWKVDNALQSGNSQESVTEQDSKDSTYSLSSTLTLSKADYEKHKVYACEVTHQGLSSPVTKSFNRGEC"
4,105 % of control (=100),"GpH7-B3 variant Y296_18N/GpL16-k0 (homodimerized antibody, Ho Ab) (antibody, human IgG1, kappa, Anti-glypican-3 IgG1 (G1d with K439E); same alteration in both H chains) heavy: not shown light: DIVMTQSPLSLPVTPGEPASISCQASESLVHSNRNTYLHWYLQKPGQSPQLLIYKVSNRFSGVPDRFSGSGSGTDFTLKISRVEAEDVGVYYCSQNTHVPPTFGQGTKVEIERTVAAPSVFIFPPSDEQLKSGTASVVCLLNNFYPREAKVQWKVDNALQSGNSQESVTEQDSKDSTYSLSSTLTLSKADYEKHKVYACEVTHQGLSSPVTKSFNRGEC"
5,101 % of control (=100),"GpH7-B3 variant Y300_11K/GpL16-k0 (homodimerized antibody, Ho Ab) (antibody, human IgG1, kappa, Anti-glypican-3 IgG1 (G1d with K439E); same alteration in both H chains) heavy: not shown light: DIVMTQSPLSLPVTPGEPASISCQASESLVHSNRNTYLHWYLQKPGQSPQLLIYKVSNRFSGVPDRFSGSGSGTDFTLKISRVEAEDVGVYYCSQNTHVPPTFGQGTKVEIERTVAAPSVFIFPPSDEQLKSGTASVVCLLNNFYPREAKVQWKVDNALQSGNSQESVTEQDSKDSTYSLSSTLTLSKADYEKHKVYACEVTHQGLSSPVTKSFNRGEC"
6,105 % of control (=100),"GpH7-B3 variant Y296_16H/GpL16-k0 (homodimerized antibody, Ho Ab) (antibody, human IgG1, kappa, Anti-glypican-3 IgG1 (G1d with K439E); same alteration in both H chains) heavy: not shown light: DIVMTQSPLSLPVTPGEPASISCQASESLVHSNRNTYLHWYLQKPGQSPQLLIYKVSNRFSGVPDRFSGSGSGTDFTLKISRVEAEDVGVYYCSQNTHVPPTFGQGTKVEIERTVAAPSVFIFPPSDEQLKSGTASVVCLLNNFYPREAKVQWKVDNALQSGNSQESVTEQDSKDSTYSLSSTLTLSKADYEKHKVYACEVTHQGLSSPVTKSFNRGEC"
7,110 % of control (=100),"GpH7-B3 variant Y300_20W/GpL16-k0 (homodimerized antibody, Ho Ab) (antibody, human IgG1, kappa, Anti-glypican-3 IgG1 (G1d with K439E); same alteration in both H chains) heavy: not shown light: DIVMTQSPLSLPVTPGEPASISCQASESLVHSNRNTYLHWYLQKPGQSPQLLIYKVSNRFSGVPDRFSGSGSGTDFTLKISRVEAEDVGVYYCSQNTHVPPTFGQGTKVEIERTVAAPSVFIFPPSDEQLKSGTASVVCLLNNFYPREAKVQWKVDNALQSGNSQESVTEQDSKDSTYSLSSTLTLSKADYEKHKVYACEVTHQGLSSPVTKSFNRGEC"
8,109 % of control (=100),"GpH7-B3 variant Y300_08L/GpL16-k0 (homodimerized antibody, Ho Ab) (antibody, human IgG1, kappa, Anti-glypican-3 IgG1 (G1d with K439E); same alteration in both H chains) heavy: not shown light: DIVMTQSPLSLPVTPGEPASISCQASESLVHSNRNTYLHWYLQKPGQSPQLLIYKVSNRFSGVPDRFSGSGSGTDFTLKISRVEAEDVGVYYCSQNTHVPPTFGQGTKVEIERTVAAPSVFIFPPSDEQLKSGTASVVCLLNNFYPREAKVQWKVDNALQSGNSQESVTEQDSKDSTYSLSSTLTLSKADYEKHKVYACEVTHQGLSSPVTKSFNRGEC"
9,106 % of control (=100),"GpH7-B3 variant Y296_20W/GpL16-k0 (homodimerized antibody, Ho Ab) (antibody, human IgG1, kappa, Anti-glypican-3 IgG1 (G1d with K439E); same alteration in both H chains) heavy: not shown light: DIVMTQSPLSLPVTPGEPASISCQASESLVHSNRNTYLHWYLQKPGQSPQLLIYKVSNRFSGVPDRFSGSGSGTDFTLKISRVEAEDVGVYYCSQNTHVPPTFGQGTKVEIERTVAAPSVFIFPPSDEQLKSGTASVVCLLNNFYPREAKVQWKVDNALQSGNSQESVTEQDSKDSTYSLSSTLTLSKADYEKHKVYACEVTHQGLSSPVTKSFNRGEC"
10,110 % of control (=100),"GpH7-B3 variant Y300_13S/GpL16-k0 (homodimerized antibody, Ho Ab) (antibody, human IgG1, kappa, Anti-glypican-3 IgG1 (G1d with K439E); same alteration in both H chains) heavy: not shown light: DIVMTQSPLSLPVTPGEPASISCQASESLVHSNRNTYLHWYLQKPGQSPQLLIYKVSNRFSGVPDRFSGSGSGTDFTLKISRVEAEDVGVYYCSQNTHVPPTFGQGTKVEIERTVAAPSVFIFPPSDEQLKSGTASVVCLLNNFYPREAKVQWKVDNALQSGNSQESVTEQDSKDSTYSLSSTLTLSKADYEKHKVYACEVTHQGLSSPVTKSFNRGEC"
